# Test results as given in paper PMC3883301, “FLC-mediated flowering repression is positively regulated by sumoylation” (Journal of Experimental Botany, 2013).
# Where a chain is given by its changes, count along the chain named. In names and notes the source's numbering stands.
# B1: His6-FLC (flowering locus C, full length) (natural protein, Arabidopsis thaliana, UniProt Q9S7Q7 1-196, looked up)
# chain: MGRKKLEIKRIENKSSRQVTFSKRRNGLIEKARQLSVLCDASVALLVVSASGKLYSFSSGDNLVKILDRYGKQHADDLKALDHQSKALNYGSHYELLELVDSKLVGSNVKNVSIDALVQLEEHLETALSVTRAKKTELMLKLVENLKEKEKMLKEENQVLASQMENNHHVGAEAEMEMSPAGQISDNLPVTLPLLN
# notes: Flowering locus C (FLC), MADS-box transcription factor, Arabidopsis; full-length cDNA in pET28a; The printed name puts His6 before FLC; also called Arabidopsis FLC; source: E. coli BL21/DE3 (pLysS), purified (Ni2+-NTA resin)
# B2: His6-mFLC (FLC K154R) (natural protein, Arabidopsis thaliana, UniProt Q9S7Q7 1-196, looked up)
# chain: B1 chain with K154R
# notes: Flowering locus C (FLC), Arabidopsis, full length with the sumoylation site mutation K154R; The construct section describes His6-FLC(K154R)-Myc only; also called mutant FLC; source: E. coli BL21, purified (Ni2+-NTA resin)
# B3: GST–AtSIZ1 (D3), amino acids 1–100 (domain or fragment, Arabidopsis thaliana, UniProt Q680Q4 1-100, looked up)
# chain: MDLEANCKEKLSYFRIKELKDVLTQLGLSKQGKKQELVDRILTLLSDEQAARLLSKKNTVAKEAVAKLVDDTYRKMQVSGASDLASKGQVSSDTSNLKVK
# notes: AtSIZ1, Arabidopsis, amino acids 1-100 (N-terminal region containing the SAP domain), in pGEX4T-1; also called N-terminal region containing the SAP domain of AtSIZ1; source: E. coli BL21/DE3 (pLysS), purified (glutathione resin)
# What was measured:
# GST–FLC, full length = target: T1, GST–FLC, full length (Arabidopsis thaliana, UniProt Q9S7Q7 1-196); assay: pull-down; 2 μg GST–FLC bait and 2 μg His6-FLC or His6-mFLC prey in 1 ml binding buffer (50 mM TRIS-HCl pH 7.5, 100 mM NaCl, 1% Triton X-100, 0.2% glycerol, 0.5 mM β-mercaptoethanol); 25 °C 2 h; glutathione resin; anti-His blot; details: both partners purified
# T1 construct: Flowering locus C (FLC), Arabidopsis, full-length GST–FLC bait; The construct section describes only GST–FLC-Myc (pGEX4T-1)
# T1 sequence (looked up): B1 chain
# [1] = target: B1; assay: pull-down; 2 μg GST–AtSIZ1 (full length or deletion mutant) or GST bait and 2 μg His6-FLC prey in 1 ml 50 mM TRIS-HCl pH 7.5, 100 mM NaCl, 1% Triton X-100, 0.2% glycerol, 0.5 mM β-mercaptoethanol; 25 °C 2 h; glutathione resin; anti-His blot; details: both partners purified
binder,measurement,setting,value
B1,binding result,"GST–FLC, full length",binds
B2,binding result,"GST–FLC, full length",binds
B3,binding result,[1],binds
